Results published in paper PMC2749821.
Blank lines part the entries; values can stand above or below the binder they belong to.

Tests used:
[1] = target: T1, bone morphogenetic protein 7 (BMP7), human (human), P18075; experiment: SPR; Biacore 2000; receptor ectodomains as analyte over biotinylated ligands on streptavidin-coated CM5 chips; HBS500, 25°C, 10 μl/min; apparent affinities, 1:1 interaction; conditions: remark: other sources report otherwise
T1 chain: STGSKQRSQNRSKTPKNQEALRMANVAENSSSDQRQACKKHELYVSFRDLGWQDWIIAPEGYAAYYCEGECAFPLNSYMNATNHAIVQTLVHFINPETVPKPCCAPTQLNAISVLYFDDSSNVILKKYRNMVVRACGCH

activin A, human (human) = activin A, human (human) (UniProt P08476); experiment: as above
[2] = target: preformed complex of BMP7 with immobilized BMPR-IB ectodomain (human | mouse) (UniProt P18075); experiment: SPR; ternary complexes by coinjection: 100 nM ligand perfused 2 min over the immobilized type I receptor ectodomain, then 100 nM ligand plus 0 to 64 μM soluble type II receptor ectodomain; HBS500, 25°C; equilibrium dose response
[3] = target: preformed complex of BMP2 with immobilized BMPR-IA ectodomain (human) (UniProt P12643); experiment: as above
[4] = target: preformed complex of GDF5 with an immobilized type I receptor ectodomain (BMPR-IA or BMPR-IB) (UniProt P43026); experiment: as above
[5] = target: T2, activin receptor type I (ActR-I) ectodomain, human (human), Q04771; experiment: SPR; Biacore 2000; ligands as analyte over biotinylated receptor ectodomains (about 200 RU) on streptavidin-coated CM5 chips; HBS500 (10 mM HEPES pH 7.4, 500 mM NaCl, 3.4 mM EDTA, 0.005% P20), 25°C, 10 μl/min; apparent affinities, 1:2 interaction with avidity; conditions: remark: other sources report otherwise
T2 chain: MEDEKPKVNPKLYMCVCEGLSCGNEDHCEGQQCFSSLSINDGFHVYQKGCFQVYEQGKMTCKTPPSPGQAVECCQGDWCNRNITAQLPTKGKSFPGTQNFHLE

- Kd [1]: 58 µM
B1: activin receptor type I (ActR-I) ectodomain, human, Q04771 21-123 (receptor)
chain: MEDEKPKVNPKLYMCVCEGLSCGNEDHCEGQQCFSSLSINDGFHVYQKGCFQVYEQGKMTCKTPPSPGQAVECCQGDWCNRNITAQLPTKGKSFPGTQNFHLE
modifications: here or on the partner: N-biotinylated (sulfo-NHS-LC-biotin) where immobilised; biotin (sulfo-NHS-LC-biotin) where immobilised

- Kd (activin A, human (human)): 0.89 µM
- koff (activin A, human (human)): 0.076 s⁻¹
- kon (activin A, human (human)): 100000 M⁻¹ s⁻¹
- Kd [2]: 16 µM
- Kd [3]: 22 µM
- Kd [4]: 32 µM
B2: BMP receptor II (BMPR-II) ectodomain, human (receptor)
chain: RLCAFKDPYQQDLGIGESRISHENGTILCSKGSTCYGLWEKSKGDINLVKQGCWSHIGDPQECHYEECVVTTTPPSIQNGTYRFCCCSTDLCNVNFTENFPPPDTTPLSPPHSFNRDET
modifications: N-biotinylated (sulfo-NHS-LC-biotin) where immobilised

- KD (eq) [5]: > 0.5 µM
- Kd [5]: > 0.5 µM
B3: bone morphogenetic protein 7 (BMP7), human, P18075 293-431 (ligand)
chain: STGSKQRSQNRSKTPKNQEALRMANVAENSSSDQRQACKKHELYVSFRDLGWQDWIIAPEGYAAYYCEGECAFPLNSYMNATNHAIVQTLVHFINPETVPKPCCAPTQLNAISVLYFDDSSNVILKKYRNMVVRACGCH
modifications: here or on the partner: biotin (sulfo-NHS-LC-biotin) where immobilised; N-biotinylated (sulfo-NHS-LC-biotin) where immobilised
